Among the data in US20110065649A1 are ID50 (Inhibitory Dose, inhibition of surface nucleolin activity in HeLa P4 cells and inhibition of TNF-alpha and IL-6 production by murine peritoneal macrophages stimulated by 10, 100 and 1000 ng/ml of LPS, values, retold here.

For assay [1], the target named is surface nucleolin on human cells (human), P19338. The assay can be described thus: cell-based or functional assay.
The target of assay [2] is surface nucleolin on mouse cells (mouse), P09405. The assay can be described thus: cell-based or functional assay.
surface nucleolin on mouse cells (mouse), P09405, sequence (P09405 2-707): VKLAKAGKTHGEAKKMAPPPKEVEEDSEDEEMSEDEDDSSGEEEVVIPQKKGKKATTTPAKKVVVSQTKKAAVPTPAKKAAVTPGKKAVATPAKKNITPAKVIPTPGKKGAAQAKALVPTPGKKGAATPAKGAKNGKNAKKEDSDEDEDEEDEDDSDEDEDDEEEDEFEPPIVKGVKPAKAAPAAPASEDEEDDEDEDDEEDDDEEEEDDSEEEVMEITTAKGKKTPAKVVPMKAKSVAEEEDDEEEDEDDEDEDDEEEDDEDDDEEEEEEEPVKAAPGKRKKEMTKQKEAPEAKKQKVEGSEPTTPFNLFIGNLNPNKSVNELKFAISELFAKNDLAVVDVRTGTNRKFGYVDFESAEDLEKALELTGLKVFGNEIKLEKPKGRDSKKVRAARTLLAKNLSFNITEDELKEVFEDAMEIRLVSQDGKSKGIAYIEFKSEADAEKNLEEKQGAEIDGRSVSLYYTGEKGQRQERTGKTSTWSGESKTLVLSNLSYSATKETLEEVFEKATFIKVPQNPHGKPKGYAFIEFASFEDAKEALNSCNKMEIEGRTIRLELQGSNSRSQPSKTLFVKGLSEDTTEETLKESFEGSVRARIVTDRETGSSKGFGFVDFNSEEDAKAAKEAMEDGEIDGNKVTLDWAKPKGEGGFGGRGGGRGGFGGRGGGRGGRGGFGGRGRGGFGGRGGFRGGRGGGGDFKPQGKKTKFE

surface nucleolin on human cells (human), P19338, sequence (P19338 2-710): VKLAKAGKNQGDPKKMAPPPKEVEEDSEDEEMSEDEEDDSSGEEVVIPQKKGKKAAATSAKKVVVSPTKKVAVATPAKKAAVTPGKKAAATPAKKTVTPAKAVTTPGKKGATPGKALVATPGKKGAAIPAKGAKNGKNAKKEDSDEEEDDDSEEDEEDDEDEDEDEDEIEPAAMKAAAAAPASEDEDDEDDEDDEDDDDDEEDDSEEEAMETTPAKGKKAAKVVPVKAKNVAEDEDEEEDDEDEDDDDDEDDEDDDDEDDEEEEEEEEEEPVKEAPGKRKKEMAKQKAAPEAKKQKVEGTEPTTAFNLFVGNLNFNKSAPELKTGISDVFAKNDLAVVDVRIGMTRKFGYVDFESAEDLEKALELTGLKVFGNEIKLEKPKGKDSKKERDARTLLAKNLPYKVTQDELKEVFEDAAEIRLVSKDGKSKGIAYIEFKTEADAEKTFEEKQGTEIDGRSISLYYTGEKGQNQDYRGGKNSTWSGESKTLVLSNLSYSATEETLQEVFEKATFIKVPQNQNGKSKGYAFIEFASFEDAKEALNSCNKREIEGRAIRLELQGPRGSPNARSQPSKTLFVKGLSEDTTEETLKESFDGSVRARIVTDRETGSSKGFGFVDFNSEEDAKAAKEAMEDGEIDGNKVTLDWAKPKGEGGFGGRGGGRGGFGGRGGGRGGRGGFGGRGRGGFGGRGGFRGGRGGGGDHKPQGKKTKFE

B1: hexavalent compound Nucant 7 (peptide)
chain: KAKPGKAKPGKAKPG
peptide: KPR
modifications: not checked
In assay [1], B1 showed an ID50 (Inhibitory Dose at 50%) of surface nucleolin activity in HeLa P4 cells below 0.1 µM and an inhibition of surface nucleolin activity in HeLa P4 cells at 0.8 µM above 95%. The same molecule came in with an inhibition of TNF-alpha and IL-6 production by murine peritoneal macrophages stimulated by 10, 100 and 1000 ng/ml of LPS, at 10 µM of Nucant 7 in assay [2] above 95%.
